In patent US7749976:
Marks after values point to notes of the source that are not given here.

B1: GST-PLIP (recombinant murine PLIP fusion protein with N-terminal GST and 6-His tags) (protein)
chain: MAASAWLEAGLARVLFYPTLLYTVFRGRVRGPAHRDWYHRIDHTVLLGALPLKNMTRRLVLDENVRGVITMNEEYETRFLCNTSKEWKKAGVEQLRLSTVDMTGVPTLANLHKGVQFALKYQALGQCVYVHCKAGRSRSATMVAAYLIQVHNWSPEEAIEAIAKIRSHISIRPSQLEVLKEFHKEITARAAKN
B2: VHR (protein)
chain: MSGSFELSVQDLNDLLSDGSGCYSLPSQPCNEVTPRIYVGNASVAQDIPKLQKLGITHVLNAAEGRSFMHVNTNANFYKDSGITYLGIKANDTQEFNLSAYFERAADFIDQALAQKNGRVLVHCREGYSRSPTLVIAYLMMRQKMDVKSALSIVRQNREIGPNDGFLAQLCQLNDRLAKEGKLKP
B3: TC-PTP (protein)
chain: MPTTIEREFEELDTQRRWQPLYLEIRNESHDYPHRVAKFPENRNRNRYRDVSPYDHSRVKLQNAENDYINASLVDIEEAQRSYILTQGPLPNTCCHFWLMVWQQKTKAVVMLNRIVEKESVKCAQYWPTDDQEMLFKETGFSVKLLSEDVKSYYTVHLLQLENINSGETRTISHFHYTTWPDFGVPESPASFLNFLFKVRESGSLNPDHGPAVIHCSAGIGRSGTFSLVDTCLVLMEKGDDINIKQVLLNMRKYRMGLIQTPDQLRFSYMAIIEGAKCIKGDSSIQKRWKELSKEDLSPAFDHSPNKIMTEKYN

Chain of MyBP Tyr(P) (P02686 whole entry): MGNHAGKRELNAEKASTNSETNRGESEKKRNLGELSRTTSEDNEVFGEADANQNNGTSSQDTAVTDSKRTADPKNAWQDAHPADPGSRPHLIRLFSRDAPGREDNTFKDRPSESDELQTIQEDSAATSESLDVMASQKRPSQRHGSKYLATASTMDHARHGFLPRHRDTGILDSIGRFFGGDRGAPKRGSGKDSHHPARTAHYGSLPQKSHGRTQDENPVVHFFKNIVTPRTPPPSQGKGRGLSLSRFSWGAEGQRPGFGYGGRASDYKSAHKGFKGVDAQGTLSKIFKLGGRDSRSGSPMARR
Chain of MyBP Ser(P)/Tyr(P) (P02686 whole entry): as above

Row | Protein | Phosphatase activity (mole of phosphate released/min/mol of enzyme) (Casein Ser(P)) | Phosphatase activity (mole of phosphate released/min/mol of enzyme) (mol/(min mol)) (Casein Ser(P)) | Phosphatase activity (mole of phosphate released/min/mol of enzyme) (MyBP Ser(P)/Tyr(P)) | Phosphatase activity (mole of phosphate released/min/mol of enzyme) (mol/(min mol)) (MyBP Tyr(P))
1 | B1 | ~0.0^b | 0.2 | ~0.0^b | 0.1
2 | B2 | ~0.0^b | 1.8 | ~0.0^b | 0.5
3 | B3 | ~0.0^b | 1440 | ~0.0^b | 195
